Experimental data reported in PMC2193258.

B1: human fibrinogen, P02671-2 20-644; P02675 31-491; P02679-2 27-437 (complex)
chain 1: ADSGEGDFLAEGGGVRGPRVVERHQSACKDSDWPFCSDEDWNYKCPSGCRMKGLIDEVNQDFTNRINKLKNSLFEYQKNNKDSHSLTTNIMEILRGDFSSANNRDNTYNRVSEDLRSRIEVLKRKVIEKVQHIQLLQKNVRAQLVDMKRLEVDIDIKIRSCRGSCSRALAREVDLKDYEDQQKQLEQVIAKDLLPSRDRQHLPLIKMKPVPDLVPGNFKSQLQKVPPEWKALTDMPQMRMELERPGGNEITRGGSTSYGTGSETESPRNPSSAGSWNSGSSGPGSTGNRNPGSSGTGGTATWKPGSSGPGSTGSWNSGSSGTGSTGNQNPGSPRPGSTGTWNPGSSERGSAGHWTSESSVSGSTGQWHSESGSFRPDSPGSGNARPNNPDWGTFEEVSGNVSPGTRREYHTEKLVTSKGDKELRTGKEKVTSGSTTTTRRSCSKTVTKTVIGPDGHKEVTKEVVTSEDGSDCPEAMDLGTLSGIGTLDGFRHRHPDEAAFFDTASTGKTFPGFFSPMLGEFVSETESRGSESGIFTNTKESSSHHPGIAEFPSRGKSSSYSKQFTSSTSYNRGDSTFESKSYKMADEAGSEADHEGTHSTKRGHAKSRPVRGIHTSPLGKPSLSP
chain 2: QGVNDNEEGFFSARGHRPLDKKREEAPSLRPAPPPISGGGYRARPAKAAATQKKVERKAPDAGGCLHADPDLGVLCPTGCQLQEALLQQERPIRNSVDELNNNVEAVSQTSSSSFQYMYLLKDLWQKRQKQVKDNENVVNEYSSELEKHQLYIDETVNSNIPTNLRVLRSILENLRSKIQKLESDVSAQMEYCRTPCTVSCNIPVVSGKECEEIIRKGGETSEMYLIQPDSSVKPYRVYCDMNTENGGWTVIQNRQDGSVDFGRKWDPYKQGFGNVATNTDGKNYCGLPGEYWLGNDKISQLTRMGPTELLIEMEDWKGDKVKAHYGGFTVQNEANKYQISVNKYRGTAGNALMDGASQLMGENRTMTIHNGMFFSTYDRDNDGWLTSDPRKQCSKEDGGGWWYNRCHAANPNGRYYWGGQYTWDMAKHGTDDGVVWMNWKGSWYSMRKMSMKIRPFFPQQ
chain 3: YVATRDNCCILDERFGSYCPTTCGIADFLSTYQTKVDKDLQSLEDILHQVENKTSEVKQLIKAIQLTYNPDESSKPNMIDAATLKSRKMLEEIMKYEASILTHDSSIRYLQEIYNSNNQKIVNLKEKVAQLEAQCQEPCKDTVQIHDITGKDCQDIANKGAKQSGLYFIKPLKANQQFLVYCEIDGSGNGWTVFQKRLDGSVDFKKNWIQYKEGFGHLSPTGTTEFWLGNEKIHLISTQSAIPYALRVELEDWNGRTSTADYAMFKVGPEADKYRLTYAYFAGGDAGDAFDGFDFGDDPSDKFFTSHNGMQFSTWDNDNDKFEGNCAEQDGSGWWMNKCHAGHLNGVYYQGGTYSKASTPNGYDNGIIWATWKTRWYSMKKTTMKIIPFNRLTIGEGQQHHLGGAKQAGDV

What was measured:
[1] = biological target: glycocalicin (the soluble extracellular domain of platelet glycoprotein Ibα) (human) (UniProt P07359); experiment: cell adhesion assay, competition
[2] = biological target: Mac-1 (αMβ2, CD11b/CD18) on THP-1 monocytic cells (human (endogenous in THP-1)), P11215; experiment: cell adhesion assay, competition; settings: remark: other sources report otherwise

Sequence of UniProt P07359 (P07359 17-531): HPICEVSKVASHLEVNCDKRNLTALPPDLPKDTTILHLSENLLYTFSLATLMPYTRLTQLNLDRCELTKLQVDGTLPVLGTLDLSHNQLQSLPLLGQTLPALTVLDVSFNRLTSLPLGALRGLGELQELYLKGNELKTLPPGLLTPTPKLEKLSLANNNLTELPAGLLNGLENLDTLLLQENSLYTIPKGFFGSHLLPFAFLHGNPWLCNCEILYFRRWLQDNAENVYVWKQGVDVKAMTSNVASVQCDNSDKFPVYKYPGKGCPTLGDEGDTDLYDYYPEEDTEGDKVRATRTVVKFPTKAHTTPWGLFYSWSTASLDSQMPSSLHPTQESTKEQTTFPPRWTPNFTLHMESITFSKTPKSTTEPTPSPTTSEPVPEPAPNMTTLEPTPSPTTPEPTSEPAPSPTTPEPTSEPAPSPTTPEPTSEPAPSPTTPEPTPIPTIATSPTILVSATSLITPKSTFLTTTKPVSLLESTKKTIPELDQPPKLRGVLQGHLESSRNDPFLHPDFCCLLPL

Molecule | percent inhibition of THP-1 adhesion to GP Ibα [1] [%] | percent inhibition of THP-1 adhesion to GP Ibα [2] [%]
39/34-kD dispase fragment of vWf encompassing the A1 domain (Leu480–Gly718) (domain or fragment) | 83 | 
B1 |  | 99
